{"source": "patent US20080274959A1", "about": "“Actinomadura Chromoprotein, Apoprotein and Gene Cluster” (Wyeth, priority 2004, published 2008)", "key": {"[1]": {"system": "BT474", "assay": "Potency against human tumor cell lines: BT474", "type": "cell-based", "conditions": "BT474, Breast"}, "[2]": {"system": "Supercoiled φX174 DNA", "assay": "DNA cleavage assay, gel electrophoresis", "type": "biochemical", "method": "Supercoiled φX174 DNA was incubated with various concentrations of the 21G792 chromoprotein and analyzed by gel electrophoresis. […] Nicked refers to single strand breaks in the DNA and linear refers to double strand breaks."}, "[3]": {"system": "KB-8-5", "assay": "IC50 against P-GP expressing cells: KB-8-5", "type": "cell-based", "conditions": "KB-8-5, P-GP level +; mean of two independent experiments", "from_the_text": "Human PGP (MDR1) is an ATP-dependent efflux pump which is capable of transporting many drugs across cell membranes. High level expression of this protein has been linked to multiple drug resistance of tumors. […] The protein component of the chromoprotein probably protects the chromophore from drug efflux mediated by MDR1, and may be responsible for the beneficial antitumor effects in colon cell lines which often express MDR1."}, "[4]": {"system": "PC3", "assay": "Potency against human tumor cell lines: PC3", "type": "cell-based", "conditions": "PC3, Prostate"}, "[5]": {"system": "Histone H1", "assay": "Digestion of histone H1, SDS-PAGE", "type": "biochemical", "method": "Histone H1 was incubated with various concentrations of the chromoprotein in 50 mM Tris-Cl, pH 7.5 overnight at 37° C. (FIG. 20) Digestions of histone were assessed by SDS-polyacrylamide gel electrophoresis (SDS-PAGE), followed by staining of the gel with GelCode Blue (Pierce Biotechnology, Inc, Rockford, Ill.)."}, "[6]": {"system": "p21+/+ cells", "assay": "Sensitivity of isogenic cell lines, p21+/+", "type": "cell-based, human", "conditions": "p21+/+ isogenic cell line; Mean ± SD, n = 3", "from_the_text": "The p53/p21 checkpoint monitors the integrity of the genome and blocks cell cycle progression in the event of DNA damage. Disruption of the checkpoint by deletion of the p21 gene results in failure to arrest in response to DNA damage ultimately leading to cell death through apoptosis. Since loss of this checkpoint is a hallmark of cancer cells, an isogenic pair of cell lines, wherein one pair of the cell line (p21+/+) has an intact p21 gene and one member (p21−/−) has a deletion in the p21 gene, can be used to screen for potential anti-tumor compounds by identifying molecules that preferentially induce apoptosis in p21-deficient cells.\nThe Actinomadura sp. 21G792 chromoprotein was added to an isogenic pair of cell lines (p21+/+ and p21−/−)."}, "[7]": {"assay": "Toxicity in nude mice", "type": "in vivo", "conditions": "for Bone Marrow Necrosis, average lesion severity: 0 = WNL, 1 = slight, 2 = mild, 3 = moderate, 4 = marked, 5 = severe", "method": "21G792 chromoprotein is well-tolerated in nude mice. Specifically, saline control vehicle or the chromoprotein in various doses was administered intravenously to six nude mice on days 1, 5, and 9."}, "[8]": {"system": "LoVo, HCT116, HT29, LOX, HN5 and PC-3 tumors", "assay": "In vivo anti-tumor activity, subcutaneous human tumor xenografts", "parameters": "species or system athymic (nude) mice", "conditions": "intravenous in saline, further doses on days 5 and 9; all six xenograft models", "method": "The human tumor cell lines or fragments LoVo (colon cancer); HCT116 (colon); HT29 (colon); LOX (melanoma); HN5 (head & neck); and PC-3 (prostate) were implanted under the skin of athymic (nude) mice and allowed to form a tumor mass. When the tumors reached a size of 90-200 mg, the saline control vehicle or various concentrations of the Actinomadura sp. 21G792 chromoprotein formulated in saline was administered intravenously to the mice. The mice received subsequent doses on days 5 and 9 and the relative tumor growth was observed. The results are shown in the graphs in FIG. 24 and FIG. 25. Inhibition of tumor growth of up to 80% for mice receiving the chromoprotein was observed."}, "[9]": {"system": "LOX", "assay": "Potency against human tumor cell lines: LOX", "type": "cell-based", "conditions": "Melanoma"}, "[10]": {"system": "LoVo", "assay": "Potency against human tumor cell lines: LoVo", "type": "cell-based", "conditions": "Colon"}, "[11]": {"system": "MDA-MB-361", "assay": "Potency against human tumor cell lines: MDA-MB-361", "type": "cell-based", "conditions": "MDA-MB-361, Breast"}}, "data": [{"molecule": "Actinomadura sp. 21G792 chromoprotein: non-covalent complex of an apoprotein and a chromophore comprising a nine-membered enediyne, produced by Actinomadura sp. 21G792 (NRRL 30778) (protein) DTVTVNYDCVGYPSDIAVTIDAPATAGVGDTATFEVSSVVTTGAPQDLPAGEVVTDMAIVVGGAQSGTITASGLTNEATPAGQPVNMVGGEAQITFTSAGSVTFTPSTTTQVDNGAQCTVVGEAPVGATTVVS", "values": [{"measurement": "IC50", "setting": "[1]", "value": 47, "unit": "ng/mL"}, {"measurement": "need of a reducing agent (dithiothreitol, DTT) for DNA cleavage", "setting": "[2]", "value": "did not require a reducing agent"}, {"measurement": "DNA cleavage", "setting": "[2]; various concentrations, reaction progressed over 24 hours", "value": "induced single strand breaks and double strand breaks"}, {"measurement": "IC50", "setting": "[3]", "value": 6, "unit": "ng/mL"}, {"measurement": "IC50", "setting": "[4]", "value": 22000, "unit": "ng/mL"}, {"measurement": "digestion of histone H1 on addition of DNA", "setting": "[5]", "value": "inhibited by addition of DNA"}, {"measurement": "digestion of histones on addition of free radical scavengers", "setting": "[5]; 30 mM glutathione or N-acetyl cysteine", "value": "inhibited by the addition of free radical scavengers"}, {"measurement": "digestion of histone H1", "setting": "[5]; 50 mM Tris-Cl, pH 7.5 overnight at 37° C.", "value": "digestion of Histone H1"}, {"measurement": "digestion of histones on addition of protease inhibitors", "setting": "[5]; PMSF, Leupeptin, Aprotinin, Pepstatin A", "value": "not by protease inhibitors"}, {"measurement": "IC50", "setting": "[6]", "value": "90000 ± 32000", "unit": "ng/mL"}, {"measurement": "Lymphocytes", "setting": "[7]; 3 mg/kg", "value": 290, "unit": "cells/μl"}, {"measurement": "WBC", "setting": "[7]; 3 mg/kg", "value": 1430, "unit": "cells/μl"}, {"measurement": "Bone Marrow Necrosis, number with lesion/total number examined", "setting": "[7]; 3 mg/kg i.v. days 1, 5, 9", "value": "6/6"}, {"measurement": "Bone Marrow Necrosis, average lesion severity", "setting": "[7]; 3 mg/kg", "value": 1.7}, {"measurement": "Lymphocytes", "setting": "[7]; 6 mg/kg", "value": 40, "unit": "cells/μl"}, {"measurement": "WBC", "setting": "[7]; 6 mg/kg", "value": 1280, "unit": "cells/μl"}, {"measurement": "Bone Marrow Necrosis, number with lesion/total number examined", "setting": "[7]; 6 mg/kg i.v. days 1, 5, 9", "value": "6/6"}, {"measurement": "Bone Marrow Necrosis, average lesion severity", "setting": "[7]; 6 mg/kg", "value": 3}, {"measurement": "tolerability", "setting": "[7]; intravenous on days 1, 5 and 9", "value": "well-tolerated"}, {"measurement": "adverse effects in the intestine, nerves, spinal cord, liver, or at the site of injection", "setting": "[7]; mouse, in vivo", "value": "No adverse effects"}, {"measurement": "Inhibition of tumor growth", "setting": "[8]", "value": "up to 80%"}, {"measurement": "IC50", "setting": "[9]", "value": 1, "unit": "ng/mL"}, {"measurement": "IC50", "setting": "[10]", "value": 2, "unit": "ng/mL"}, {"measurement": "IC50", "setting": "[11]", "value": 5, "unit": "ng/mL"}]}]}
